# Earlier results in patent publication US12576131B2, “Altering inflammatory states of immune cells in vivo by modulating cellular activation states” (Fred Hutchinson Cancer Center, priority 2018, dated 2026).
# B1: murine IRF8 mutant: murine IRF8 with substitution of Lysine (K) at residue 310 with Arginine (R), SEQ ID NO: 17 (protein)
# chain: MCDRNGGRRLRQWLIEQIDSSMYPGLIWENDEKTMFRIPWKHAGKQDYNQEVDASIFKAWAVFKGKFKEGDKAEPATWKTRLRCALNKSPDFEEVTDRSQLDISEPYKVYRIVPEEEQKCKLGVAPAGCMSEVPEMECGRSEIEELIKEPSVDEYMGMTKRSPSPPEACRSQILPDWWVQQPSAGLPLVTGYAAYDTHHSAFSQMVISFYYGGKLVGQATTTCLEGCRLSLSQPGLPKLYGPDGLEPVCFPTADTIPSERQRQVTRKLFGHLERGVLLHSNRKGVFVKRLCQGRVFCSGNAVVCKGRPNRLERDEVVQVFDTNQFIRELQQFYATQSRLPDSRVVLCFGEEFPDTVPLRSKLILVQVEQLYARQLVEEAGKSCGAGSLMPALEEPQPDQAFRMFPDICTSHQRPFFRENQQITV
# Test system: IRF8 responsive genes
# Details: mutation of the K310 residue prevents SUMO binding
molecule,measurement,value
B1,increase in IRF8 specific gene transcription,2-5 fold
